Measurements: article PMC2175290 (The Journal of Cell Biology, 2000)

T1: Mex67pΔC1/His6-Mtr2p complex (S. cerevisiae | yeast, UniProt Q99257;P34232)
T1 sequence 1: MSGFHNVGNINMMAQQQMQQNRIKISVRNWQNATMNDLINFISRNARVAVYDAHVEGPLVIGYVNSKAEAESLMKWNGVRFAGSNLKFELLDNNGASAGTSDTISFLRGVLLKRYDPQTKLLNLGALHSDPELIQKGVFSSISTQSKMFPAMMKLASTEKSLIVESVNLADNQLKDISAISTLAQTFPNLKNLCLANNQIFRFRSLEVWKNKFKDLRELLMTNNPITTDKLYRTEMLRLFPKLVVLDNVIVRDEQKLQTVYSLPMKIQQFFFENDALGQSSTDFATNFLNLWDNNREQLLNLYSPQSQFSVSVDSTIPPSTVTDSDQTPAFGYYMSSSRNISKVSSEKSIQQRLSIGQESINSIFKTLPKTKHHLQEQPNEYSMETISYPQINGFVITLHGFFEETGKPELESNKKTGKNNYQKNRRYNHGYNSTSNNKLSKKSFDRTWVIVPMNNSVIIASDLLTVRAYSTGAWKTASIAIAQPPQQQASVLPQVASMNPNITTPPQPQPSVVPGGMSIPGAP
T1 sequence 2: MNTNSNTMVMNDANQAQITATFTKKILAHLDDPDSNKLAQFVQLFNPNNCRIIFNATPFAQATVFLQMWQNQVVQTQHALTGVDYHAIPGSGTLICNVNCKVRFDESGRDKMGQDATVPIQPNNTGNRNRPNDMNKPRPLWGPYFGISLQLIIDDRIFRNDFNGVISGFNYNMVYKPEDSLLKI

T2: Mex67p/His6-Mtr2p complex (S. cerevisiae | yeast, UniProt Q99257;P34232)
T2 sequence 1: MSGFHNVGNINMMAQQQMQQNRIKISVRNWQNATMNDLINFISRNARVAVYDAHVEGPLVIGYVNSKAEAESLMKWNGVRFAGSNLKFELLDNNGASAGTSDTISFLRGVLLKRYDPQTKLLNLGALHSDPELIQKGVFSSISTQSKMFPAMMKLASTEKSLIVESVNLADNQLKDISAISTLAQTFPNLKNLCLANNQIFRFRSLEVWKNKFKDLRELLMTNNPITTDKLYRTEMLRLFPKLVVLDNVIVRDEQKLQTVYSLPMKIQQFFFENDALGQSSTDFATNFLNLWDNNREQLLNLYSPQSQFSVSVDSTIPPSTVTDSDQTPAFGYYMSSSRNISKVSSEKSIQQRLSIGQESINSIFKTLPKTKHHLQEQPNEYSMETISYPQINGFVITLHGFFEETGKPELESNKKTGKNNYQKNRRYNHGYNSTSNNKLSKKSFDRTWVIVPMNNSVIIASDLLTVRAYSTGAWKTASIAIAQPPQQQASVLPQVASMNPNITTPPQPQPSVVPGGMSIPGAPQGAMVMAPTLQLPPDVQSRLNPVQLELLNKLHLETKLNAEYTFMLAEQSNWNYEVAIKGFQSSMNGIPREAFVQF
T2 sequence 2: T1 sequence 2

B1: untagged full-length Mex67p (natural protein)
chain: T2 sequence 1
B2: His6-Mtr2p (natural protein)
chain: T1 sequence 2
B3: GST-GLFG_(Nup116) (domain or fragment)
chain: YQAGRKFGTSQNGTGTTFNNPQGTTNTGFGIMGNNNSTTSATTGGLFGQKPATGMFGTGTGSGGGFGSGATNSTGLFGSSTNLSGNSAFGANKPATSGGLFGNTTNNPTNGTNNTGLFGQQNSNTNGGLFGQQQNSFGANNVSNGGAFGQVNRGAFPQQQTQQGSGGIFGQSNANANGGAFGQQQGTGALFGAKPASGGLFGQSAGSKAFGMNTNPTGTTGGLFGQTNQQQSGGGLFGQQQNSNAGGLFGQNNQSQNQSGLFGQQNSSNAFGQPQQQGGLFGSKPAGGLFGQQQGASTFASGNAQNNSIFGQNNQQQQSTGGLFGQQNNQSQSQPGGLFGQTNQNNNQPFGQNGLQQPQQNNSLFGAKPTGFGNTSLFSNSTTNQSNGISGNNLQQQSGGLFQNKQQPASGGLFGSKPSNTVGGGLFGNNQVANQNNPASTSGGLFGSKPATGSLFGGTNSTAPNASSGGIFGSNNASNTAATTNSTGLFGNKPVGAGASTSAGGLFGNNNNSSLNNSNGSTGLFGSNNTSQSTNAGGLFQNNTSTNTSGGGLFSQPSQSMAQSQNALQQ
B4: GST-FG_(Nup159) (domain or fragment)
chain: QSQSSSTFGAPSFGSSAFKIDLPSVSSTSTGVASSEQDATDPASAKPVFGKPAFGAIAKEPSTSEYAFGKPSFGAPSFGSGKSSVESPASGSAFGKPSFGTPSFGSGNSSVEPPASGSAFGKPSFGTPSFGSGNSSAEPPASGSAFGKPSFGTSAFGTASSNETNSGSIFGKAAFGSSSFAPANNELFGSNFTISKPTVDSPKEVDSTSPFPSSGDQSEDESKSDVDSSSTPFGTKPNTSTKPKTNAFDFGSSSFGSGFSKALESVGSDTTFKFGTQASPFSSQLGNKSPFSSFTKDDTENGSLSKGSTSEINDDNEEHESNGPNVSGNDLTDSTVEQTSSTRLPETPSDEDGEVVEEEAQKSPIGKLTETIKKSANIDMAGLKNPVFGNHVKAKSESPFSAFATNITKPSSTTPAFSFGNSTMNKSNTSTVSPMEEADTKETS

Assays:
[1] = target: B2; assay: AUC
[2] = target: B1; assay: pull-down
[3] = target: T1, Mex67pΔC1/His6-Mtr2p complex; assay: pull-down
[4] = target: T2, Mex67p/His6-Mtr2p complex; assay: pull-down

stoichiometry N [1] | binding result [2] | binding result [3] | binding result [4] | Binder
1 | – | – | – | B1
– | binds | – | – | B2
– | – | binds | binds | B3
– | – | binds | binds | B4
